Assay [1] has as its target FliD lacking the C-terminal coiled-coil domain (FliD_(1–405)) from the P. aeruginosa PAO1 strain (Pseudomonas aeruginosa PAO1) (UniProt Q9K3C5). In words: cross-linking; about 0.4 mg/mL protein, 20 mM EDC and 20 mM NHS, various time points; silver-stained SDS-PAGE.
Assay [2] deals with FliD lacking the N-terminal coiled-coil domain (FliD_(78–474)) from the P. aeruginosa PAO1 strain (Pseudomonas aeruginosa PAO1) (UniProt Q9K3C5). Described as above.
Assay [3] concerns the target FliD_(1–474(I167C/D253C)) produced by Pseudomonas (complementation strain ΔfliD/fliD_(1–474(I167C/D253C))) (Pseudomonas aeruginosa PAO1) (UniProt Q9K3C5). Kind of assay: Western blot after non-reducing SDS-PAGE; flagella sheared off live bacteria, supernatant concentrated; detected with anti-FliD scFv-Fc SH1579-B7. On the technique in general: Immunoblotting shows a protein as a band on a membrane.

For assay [4], the target named is FliD_(78–405) from the P. aeruginosa PAO1 strain, made as a GST fusion and cleaved (Pseudomonas aeruginosa PAO1) (UniProt Q9K3C5). Kind of assay: AUC; sedimentation velocity, 20°C, 20 mM sodium citrate, 80 mM NaCl, pH 5.0; 325 μM FliD78–405, 124 μM FliD78–273, 168 μM FliD1–474.
The target is the same in assay [5]. In words: SAXS; 30 mM Tris pH 8.0, 80 mM NaCl; three concentrations of each protein; envelopes by DAMMIF with superimposed crystal structures.
For assay [6] the target is unchanged. Kind of assay: cross-linking; about 0.4 mg/mL protein, 20 mM EDC and 20 mM NHS, various time points; silver-stained SDS-PAGE.
Assay [7] shares this target. Kind of assay: negative stain EM with class averaging; 2% uranyl acetate, about 3500 particles, class averages in EMAN2.
Assay [8] has the same target. Kind of assay: AUC; sedimentation velocity, 20°C, 30 mM Tris, 80 mM NaCl, pH 8.0; 295 μM FliD78–405, 124 μM FliD78–273, 168 μM FliD1–474.
The target in assay [9] is FliD_(78–405) from the P. aeruginosa PAO1 strain, with N-terminal His6-tag (crystallized construct) (Pseudomonas aeruginosa PAO1) (UniProt Q9K3C5). Kind of assay: crystal structure; His6-FliD78–405 crystals grown in 0.8 M NaK Tartrate, 0.1 M Hepes pH 7.5; 2.2 Å; P6 space group.
In assay [10] the target is full-length FliD_(1–474) from the P. aeruginosa PAO1 strain (Pseudomonas aeruginosa PAO1) (UniProt Q9K3C5). Kind of assay: AUC; sedimentation velocity, 20°C, 20 mM sodium citrate, 80 mM NaCl, pH 5.0; 325 μM FliD78–405, 124 μM FliD78–273, 168 μM FliD1–474.
For assay [11] the target is unchanged. Kind of assay: cross-linking; about 0.4 mg/mL protein, 20 mM EDC and 20 mM NHS, various time points; silver-stained SDS-PAGE.
For assay [12] the target is unchanged. Kind of assay: AUC; sedimentation velocity, 4 μM FliD1–474 in 30 mM Tris, 80 mM NaCl, pH 8.0.
Assay [13] has the same target. Kind of assay: AUC; sedimentation velocity, 20°C, 30 mM Tris, 80 mM NaCl, pH 8.0; 295 μM FliD78–405, 124 μM FliD78–273, 168 μM FliD1–474.
The target in assay [14] is head domain-only FliD (FliD_(78–273)) from the P. aeruginosa PAO1 strain (Pseudomonas aeruginosa PAO1) (UniProt Q9K3C5). Kind of assay: AUC; sedimentation velocity, 20°C, 20 mM sodium citrate, 80 mM NaCl, pH 5.0; 325 μM FliD78–405, 124 μM FliD78–273, 168 μM FliD1–474.
Assay [15] has the same target. In words: SAXS; 30 mM Tris pH 8.0, 80 mM NaCl; three concentrations of each protein; envelopes by DAMMIF with superimposed crystal structures.
The target is the same in assay [16]. Kind of assay: cross-linking; about 0.4 mg/mL protein, 20 mM EDC and 20 mM NHS, various time points; silver-stained SDS-PAGE.
Assay [17] concerns the target stable hexameric full-length FliD mutant FliD_(1–474(I167C/D253C)), purified recombinant protein (Pseudomonas aeruginosa PAO1) (UniProt Q9K3C5). In words: SAXS; 30 mM Tris pH 8.0, 80 mM NaCl; three concentrations of each protein; envelopes by DAMMIF with superimposed crystal structures.
The target is the same in assay [18]. Kind of assay: SDS-PAGE under non-reducing conditions; purified FliD1–474(I167C/D253C), reducing against non-reducing conditions.

The term stoichiometry N denotes a count of units in the complex or per binding partner.

Values joined by “and” are separate entries in the source; they are usually repeats but may differ in a detail not shown here. Identical values can stand only once.

Turning to “FliD lacking the C-terminal coiled-coil domain (FliD_(1–405)) from the P. aeruginosa PAO1 strain (from UniProt Q9K3C5 1-405) (domain or fragment)”, the stoichiometry N in [1] came to 2.
Regarding “FliD lacking the N-terminal coiled-coil domain (FliD_(78–474)) from the P. aeruginosa PAO1 strain (from UniProt Q9K3C5 78-474) (domain or fragment)”, the stoichiometry N in [2] was found to be 2.
“FliD_(1–474(I167C/D253C)) produced by Pseudomonas (complementation strain ΔfliD/fliD_(1–474(I167C/D253C))) (from UniProt Q9K3C5 1-474) (natural protein)”: the stoichiometry N in [3] was found to be 6.
For “FliD_(78–405) from the P. aeruginosa PAO1 strain, made as a GST fusion and cleaved (from UniProt Q9K3C5 78-405) (domain or fragment)”, the stoichiometry N was 12 in assay [4]; 12 in assay [5]; < 12 in assay [6]; 6 in assay [7]; 12 in assay [8].
“FliD_(78–405) from the P. aeruginosa PAO1 strain, with N-terminal His6-tag (crystallized construct) (from UniProt Q9K3C5 78-405) (domain or fragment)”: the stoichiometry N in [9] was 6 and 12.
As for “full-length FliD_(1–474) from the P. aeruginosa PAO1 strain (from UniProt Q9K3C5 1-474) (natural protein)”, the stoichiometry N is 4 and 6 in assay [10]; < 6 in [11]; 2 in assay [12]; 4 and 6 in [13].
Regarding “head domain-only FliD (FliD_(78–273)) from the P. aeruginosa PAO1 strain (from UniProt Q9K3C5 78-273) (domain or fragment)”, the stoichiometry N in assay [14], in assay [15] and in [16] was 2 in each case.
Consider “stable hexameric full-length FliD mutant FliD_(1–474(I167C/D253C)), purified recombinant protein (from UniProt Q9K3C5 1-474) (natural protein)”, for which the stoichiometry N in assay [17] and in [18] was 6 each time.

The record behind these values is paper PMC5072837.
